# Laboratory results taken from patent publication US20260183365A1, “COMBINATION THERAPY FOR C3 INHIBITION” (Apellis Pharmaceuticals, Inc., priority 2016, published 2026).
# Legend:
# [1] = Phase 1 single and multiple ascending dose trial of inhaled (nebulized) CA28 in healthy volunteers; format: in vivo, human
# Protocol: In the single ascending dose part of the trial, 16 subjects were enrolled in four cohorts of four subjects each.
# Four subjects were enrolled in the first cohort of the multiple ascending dose part of the trial. These subjects were to receive 14 consecutive days of treatment with a 60 mg/day dose of the drug. […] The trial was paused and subsequently resumed, with subjects receiving 30 mg/day. […] The trial was then terminated.
# [2] = target: T1, complement component C3 (human, UniProt P01024 23-1663); experiment: cell-based or functional assay
# [3] = target: T1, complement component C3; experiment: cell-based or functional assay; remark: listed apart in the source
"IC50 (read off the curve) (classical pathway complement activation, C3b deposition ELISA with human plasma) [2]",Molecule,other results
,CC[C@H](C)[C@H](NC(C)=O)C(=O)N[C@H]1CSSC[C@@H](C(=O)N[C@H](C(N)=O)[C@@H](C)O)NC(=O)[C@H](CCCNC(=N)N)NC(=O)[C@H](Cc2cnc[nH]2)NC(=O)[C@H](C)NC(=O)CNC(=O)[C@H](Cc2c[nH]c3ccccc23)NC(=O)[C@H](CC(=O)O)NC(=O)[C@H](CCC(N)=O)NC(=O)[C@H](Cc2cn(C)c3ccccc23)NC(=O)[C@H](C(C)C)NC1=O [CA28],"adverse event ([1]; inhaled 30 mg/day, after 10 days): Another subject developed signs and symptoms consistent with a potential bacterial infection; adverse event ([1]; inhaled 60 mg/day, after nine days): one subject developed signs and symptoms consistent with a potential bacterial infection"
~700 nM,ICVWQDWGAHRCTK (not fully specified; N-terminal acetyl; (1Me)Trp at position 4; disulfide Cys2-Cys12; AEEAc between Thr13 and Lys; 40 kD mPEG (NOF ME-400HS) on the Lys15 side chain; C-terminal amide) [CA28-AEEAc-Lys(mPEG40K-hexanoyl)],
~700 nM,ICVWQDWGAHRCTK (not fully specified; N-terminal acetyl; (1Me)Trp at position 4; disulfide Cys2-Cys12; AEEAc between Thr13 and Lys; 40 kD mPEG (NOF ME-400CS) on the Lys15 side chain; C-terminal amide) [CA28-AEEAc-Lys(mPEG40K-succinyl)],
,ICVWQDWGAHRCTK (not fully specified; N-terminal acetyl; (1Me)Trp at position 4; disulfide Cys2-Cys12; AEEAc between Thr13 and Lys; Lys side chain linked by a carbamate to one end of a bifunctional linear 40 kD PEG of the TS type; C-terminal amide) [CA28-2TS-BF],"IC50 (read off the curve) (alternative pathway complement activation, LPS-coated plate, C3b deposition ELISA) [B] [3]: ~400 nM"
~700 nM,ICVWQDWGAHRCTK (not fully specified; N-terminal acetyl; (1Me)Trp at position 4; disulfide Cys2-Cys12; AEEAc between Thr13 and Lys; 40 kD mPEG (NOF ME-400TS) on the Lys15 side chain; C-terminal amide) [CA28-AEEAc-Lys(mPEG40K-carbonyl)],
~700 nM,ICVWQDWGAHRCTK (not fully specified; N-terminal acetyl; (1Me)Trp at position 4; disulfide Cys2-Cys12; AEEAc between Thr13 and Lys; linear monofunctional 40 kD PEG (NOF ME-400GS) on the Lys side chain; C-terminal amide) [CA28-AEEAc-Lys-(PEG40k)],
